Measurements reported in US20110300138A1 (published 2011).
One block for each molecule: values may come before it.

What was measured:
[1] = target: thyroid stimulating hormone receptor (TSHR), full length human TSHR (human) (UniProt P16473); assay: TSH-biotin competition ELISA, TSHR coated wells; 0.1 µg/mL in assay buffer
[2] = target: TSHR (thyroid stimulating hormone receptor), full length human (human) (UniProt P16473); assay: competitor ^125I-K1-70 IgG, TSHR coated tubes; 1 µg/mL in assay buffer
[3] = target: TSH receptor (TSHR), full length human, coated on tubes (human) (UniProt P16473); assay: inhibition of 125I-K1-18 IgG binding to TSHR coated tubes; competitor 125I-K1-18 IgG; sample at 1 µg/mL in assay buffer
[4] = target: thyroid stimulating hormone receptor (TSHR), full length human TSHR (human) (UniProt P16473); assay: TSH-biotin competition ELISA, TSHR coated wells; 1 µg/mL in HBD serum
[5] = target: thyroid stimulating hormone receptor (TSHR), full length human TSHR (human) (UniProt P16473); assay: TSH-biotin competition ELISA, TSHR coated wells; 1 µg/mL in assay buffer
[6] = target: full length wild type human TSHR (human) (UniProt P16473); assay: TSHR260-AP bridge ELISA, wild type TSHR on wells; IgG at 0.5 µg/mL in HBD
[7] = target: TSH receptor (TSHR), full length human, coated on tubes (human) (UniProt P16473); assay: inhibition of 125I-K1-18 IgG binding to TSHR coated tubes; competitor 125I-K1-18 IgG; negative control sample at 0.1 µg/mL in HBD serum
[8] = target: human thyroid stimulating hormone receptor (TSHR), full length (human) (UniProt P16473); assay: 125I-K1-70 Fab (competitor) binding to TSHR coated tubes; negative control MAb 0.01 µg/mL in assay buffer
[9] = target: human thyroid stimulating hormone receptor (TSHR), full length (human) (UniProt P16473); assay: 125I-K1-70 Fab (competitor) binding to TSHR coated tubes; negative control MAb 100 µg/mL in assay buffer
[10] = target: TSHR (thyroid stimulating hormone receptor), full length human (human) (UniProt P16473); assay: negative control; competitor ^125I-K1-70 IgG, TSHR coated tubes; 100 µg/mL in HBD
[11] = target: TSHR (full length) coated on tubes (human) (UniProt P16473); assay: inhibition of 125I-K1-18 Fab (competitor) binding to TSHR coated tubes; negative control 0.01 µg/mL in assay buffer
[12] = target: human thyroid stimulating hormone receptor (TSHR), full length (human) (UniProt P16473); assay: 125I-K1-70 Fab (competitor) binding to TSHR coated tubes; negative control MAb 1 µg/mL in HBD serum
[13] = target: TSH receptor (TSHR), full length human, coated on tubes (human) (UniProt P16473); assay: inhibition of 125I-K1-18 IgG binding to TSHR coated tubes; competitor 125I-K1-18 IgG; negative control sample at 1 µg/mL in assay buffer
[14] = target: TSH receptor (TSHR) coated on tubes (human) (UniProt P16473); assay: inhibition of 125I-K1-70 IgG binding to TSHR coated tubes; negative control 0.001 µg/mL in HBD serum pool
[15] = target: TSH receptor (TSHR), full length human, coated on tubes (human) (UniProt P16473); assay: inhibition of 125I-K1-18 IgG binding to TSHR coated tubes; competitor 125I-K1-18 IgG; negative control sample at 10 µg/mL in assay buffer
[16] = target: human TSH receptor (full length) coated on ELISA plate wells (human) (UniProt P16473); assay: TSH-biotin binding inhibition ELISA, TSHR coated wells; 0.03 µg/mL in assay buffer + 100 µg/mL 5B3 IgG
[17] = target: TSH receptor (full length human TSHR) coated on tubes (human) (UniProt P16473); assay: 125I-TSH binding inhibition read against NIBSC 90/672; 30 ng/mL, in serum
[18] = target: human TSH receptor (full length) coated on ELISA plate wells (human) (UniProt P16473); assay: TSH-biotin binding inhibition ELISA, TSHR coated wells; 0.001 µg/mL in assay buffer + 100 µg/mL 5B3 IgG
[19] = target: thyroid stimulating hormone receptor (TSHR), full length, coated on tubes (human) (UniProt P16473); assay: inhibition of 125I-TSH binding, TSHR coated tubes; antibody 0.1 µg/mL in HBD serum pool
[20] = target: TSH receptor (TSHR) coated on tubes (human) (UniProt P16473); assay: inhibition of 125I-K1-70 IgG binding to TSHR coated tubes; sample 10 µg/mL in HBD serum pool
[21] = target: TSH receptor (TSHR) coated on tubes (human) (UniProt P16473); assay: inhibition of 125I-K1-70 IgG binding to TSHR coated tubes; sample 100 µg/mL in HBD serum pool
[22] = target: thyroid stimulating hormone receptor (full length human TSHR) (human) (UniProt P16473); assay: ELISA, inhibition of TSH-biotin binding to TSHR coated wells; 0.01 µg/mL, diluted in HBD serum pool
[23] = target: thyroid stimulating hormone receptor (full length human TSHR) (human) (UniProt P16473); assay: ELISA, inhibition of TSH-biotin binding to TSHR coated wells; 10 µg/mL, diluted in HBD serum pool
[24] = target: TSH receptor (TSHR), full length human, coated on tubes (human) (UniProt P16473); assay: inhibition of 125I-TSH binding to TSHR coated tubes; 0.1 µg/mL, diluted in assay buffer
[25] = target: thyroid stimulating hormone receptor (full length human TSHR) (human) (UniProt P16473); assay: ELISA: inhibition of M22 Fab-peroxidase (competitor) binding to TSHR coated wells; 100 µg/mL, diluted in assay buffer
[26] = target: TSH receptor (TSHR), full length human, coated on tubes (human) (UniProt P16473); assay: inhibition of 125I-TSH binding to TSHR coated tubes; 1 µg/mL, diluted in assay buffer
[27] = target: TSH receptor (TSHR), full length human, coated on tubes (human) (UniProt P16473); assay: inhibition of 125I-K1-18 IgG (competitor) binding to TSHR coated tubes; test sample at 100 µg/mL in assay buffer

Inhibition of binding (%) [1]: 59.7% | Inhibition of binding (%) [2]: 37.2% | Inhibition of binding (%) [3]: 63% | Inhibition of binding (%) [4]: 76% | Inhibition of binding (%) [5]: 81.8% | Mean absorbance at 405 nm (absorbance at 405 nm) [6]: 0.273
Molecule: 9D33 IgG (antibody)

Inhibition of binding (%) [7]: -7.8% | Inhibition of binding (%) [8]: -1.7% | Inhibition of binding (%) [9]: 1.4% | Inhibition of binding (%) [10]: -0.9% | Inhibition of binding (%) [11]: 0% | Inhibition of binding (%) [12]: -7.8% | Inhibition of binding (%) [13]: -3.8% | Inhibition of binding (%) [14]: 3.7% | Inhibition of binding (%) [15]: -2.7%
Molecule: 5B3 IgG (antibody)

% inhibition of TSH-biotin binding [16]: 43.6% | units/L [17]: 4.3 units/L | % inhibition of TSH-biotin binding [18]: -7.7%
Molecule: M22 IgG (antibody)

Inhibition of binding (%) [19]: 16.2% | Inhibition of binding (%) [20]: 22.7% | Inhibition of binding (%) [21]: 68.5% | Inhibition of binding (%) [22]: -2.6% | Inhibition of binding (%) [23]: 37.4% | Inhibition of binding (%) [24]: 24.4% | Inhibition of binding (%) [25]: 24.6% | Inhibition of binding (%) [26]: 38.7% | Inhibition of binding (%) [27]: 91.3%
B1: 5C9 IgG (antibody, from another filing, V domains shown)
VH: EVQLVESGGGLIQPGGSLRLSCAASGFTVSSNYMSWVRQAPGKGLEWVSVTYSGGSTSYADSVKGRFTISRDNSKNTLYLQMNSLRAEDTAVYYCARGGRYCSSISCYARSGCDYWGQGTLVTVSS
VL: AIQMTQSPSSLSASVGDRVTITCRASQSISNYLNWYQQKPGKAPKLLIYAASSLQSGVPSRFSGSGSGTDFTLTISSLQPEDFATYYCQQSYSSPSTTFGQGTKLEIK
